# Reference: paper PMC10393192, “Structure and DNA-bridging activity of the essential Rec114–Mei4 trimer interface”
# T1: Rec114C (Saccharomyces cerevisiae) (UniProt P32841)
# T1 sequence: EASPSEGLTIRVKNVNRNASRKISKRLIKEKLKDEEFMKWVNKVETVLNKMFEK
# T2: Rec114C;Mei4N (Saccharomyces cerevisiae;Saccharomyces …, UniProt P32841;P29467 375-428;1-43, |)
# T2 sequence 1: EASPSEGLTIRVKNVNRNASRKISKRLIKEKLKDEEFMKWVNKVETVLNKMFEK
# T2 sequence 2: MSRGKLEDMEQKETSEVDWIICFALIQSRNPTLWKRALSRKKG
# B1: dsDNA80 (dsDNA)
# DNA 1: CTAGTATAGAGCCGGCGCGCCATGTCTAGATAGCGTTAGGTCTGCCGAATAGTACTACTCGGATCCCGAGCGAACCACGC
# DNA 2: GCGTGGTTCGCTCGGGATCCGAGTAGTACTATTCGGCAGACCTAACGCTATCTAGACATGGCGCGCCGGCTCTATACTAG
# B2: dsDNA20 (dsDNA)
# DNA 1: AAAGATGTCCTAGCAATGTA
# DNA 2: TACATTGCTAGGACATCTTT
# Legend:
# [1] = biological target: T1, Rec114C (Saccharomyces cerevisiae); experiment: EMSA; conditions: C50, single experiment; main text ~300-400 nM; concentration as dimer; EMSA: 25 mM Tris-HCl pH 7.4, 100 mM NaCl, 5 ng DNA, 20 min, room temperature; AFM: 25 mM HEPES-NaOH pH 7.4, 5 mM MgCl2, 50 mM NaCl, 10% glycerol, 30 min, RT …
# [2] = biological target: T2, Rec114C;Mei4N; experiment: EMSA; conditions: C50; EMSA: 25 mM Tris-HCl pH 7.4, 100 mM NaCl, 5 ng DNA, 20 min, room temperature; AFM: 25 mM HEPES-NaOH pH 7.4, 5 mM MgCl2, 50 mM NaCl, 10% glycerol, 30 min, RT …
# [3] = biological target: T2, Rec114C;Mei4N; experiment: EMSA; C50; EMSA: 25 mM Tris-HCl pH 7.4, 100 mM NaCl, 5 ng DNA, 20 min, room temperature; AFM: 25 mM HEPES-NaOH pH 7.4, 5 mM MgCl2, 50 mM NaCl, 10% glycerol, 30 min, RT; optical trap: same buffer plus 5 nM SYTOX Orange, RT; conditions: protein: recombinant;recombinant; tags: 6xHis-SUMO removed by Ulp1 (tagged chain);6xHis-SUMO removed by Ulp1 when on this chain; chain copies: 2;1; blunt
# [4] = biological target: T2, Rec114C;Mei4N; experiment: EMSA; C50; main text gives ~800 nM; EMSA: 25 mM Tris-HCl pH 7.4, 100 mM NaCl, 5 ng DNA, 20 min, room temperature; AFM: 25 mM HEPES-NaOH pH 7.4, 5 mM MgCl2, 50 mM NaCl, 10% glycerol, 30 min, RT; optical trap: same buffer plus 5 nM SYTOX Orange, RT; conditions: protein: recombinant;recombinant; tags: 6xHis-SUMO removed by Ulp1 (tagged chain);6xHis-SUMO removed by Ulp1 when on this chain; chain copies: 2;1; blunt
molecule,measurement,setting,value
1000-bp DNA,K half,[1],300 nM
same,K half,[2],80 nM
B1,apparent K (half saturation),[3],100 ± 20 nM
B2,apparent K (half saturation),[4],600 ± 100 nM
